Assay results from patent US20250361297A1, “ANTI- SIGLEC-15 BINDING MOLECULES AND METHODS OF USE” (ADAPTAM THERAPEUTICS, S.L., priority 2024, published 2025).

Tests used:
human Siglec-15 [1] = biological target: T1, human Siglec-15 (Homo sapiens, UniProt Q6ZMC9); experiment: Titration of full-length IgG1 antibodies on human Siglec-15 (ELISA / flow cytometry on MOLM-13 Siglec-15 cells); format: binding; settings: full-length human IgG1, titrated from 10 μg/ml
T1 construct: expressed in transfected cells
T1 sequence (Q6ZMC9 20-328): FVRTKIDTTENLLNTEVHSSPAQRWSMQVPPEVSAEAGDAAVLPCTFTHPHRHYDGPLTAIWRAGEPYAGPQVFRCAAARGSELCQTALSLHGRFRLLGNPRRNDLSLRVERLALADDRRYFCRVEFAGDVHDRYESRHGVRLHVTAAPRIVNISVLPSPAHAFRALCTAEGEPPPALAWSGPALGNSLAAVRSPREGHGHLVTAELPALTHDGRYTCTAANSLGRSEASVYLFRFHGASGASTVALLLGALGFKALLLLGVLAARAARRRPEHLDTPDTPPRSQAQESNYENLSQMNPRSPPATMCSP
Procedure: The binding efficacy of the converted full-length IgG1 anti-Siglec-15 antibodies was then evaluated using both ELISA and flow cytometry. By immobilizing the antigen and titrating the antibodies starting at a concentration of 10 μg/ml, binding kinetics were determined via ELISA, using an anti-human IgG Fab-specific secondary antibody for detection. Palivizumab served as the negative control in these assays (FIG. 8A). Complementary to the ELISA, flow cytometry assays provided insight into the binding behavior of the antibodies on the cell surface. […] From these assays, EC50 values were calculated, offering a quantitative measure of the antibodies' affinity towards Siglec-15, and leading to the selection of 7 unique hits (Table 10).
For the ELISA, antigens were immobilized on high-binding plates, and the full-length IgG1 anti-Siglec-15 antibodies were titrated beginning at a concentration of 10 μg/ml. […] Optical densities were measured to generate binding curves from which EC50 values were derived. […] Flow cytometric analysis was conducted, and fluorescence intensity was used to calculate EC50 values, providing a quantitative assessment of the antibodies' cell surface binding efficacy. […] Antibodies were titrated starting at a concentration of 10 μg/ml and detected with an anti-human Fc-specific secondary antibody to detect bound primary antibodies. […]

mouse Siglec-15 = biological target: T2, mouse Siglec-15 (Mus musculus, UniProt A7E1W8); experiment: Titration on HEK293T cells expressing mouse Siglec-15 (flow cytometry); format: binding; settings: titrated from 10 μg/ml
T2 construct: HEK293T cells were genetically engineered to express full-length mouse Siglec-15; expressed in transfected cells; host or cells: HEK293T
T2 sequence (A7E1W8 24-342): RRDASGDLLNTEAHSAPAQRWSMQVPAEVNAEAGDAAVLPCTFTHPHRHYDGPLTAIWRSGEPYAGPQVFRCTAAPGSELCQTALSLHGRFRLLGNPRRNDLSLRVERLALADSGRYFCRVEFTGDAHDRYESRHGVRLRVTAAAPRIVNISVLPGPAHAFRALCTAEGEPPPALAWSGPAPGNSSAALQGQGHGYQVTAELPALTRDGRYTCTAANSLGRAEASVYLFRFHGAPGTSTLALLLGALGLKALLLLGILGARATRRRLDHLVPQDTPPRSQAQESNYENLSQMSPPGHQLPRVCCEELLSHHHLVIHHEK
Procedure: Cross-species reactivity and domain-specific binding of the full-length anti-Siglec-15 antibody candidates were evaluated. The antibodies were titrated against HEK293T cells expressing mouse Siglec-15 or HEK293T cells expressing a truncated human Siglec-15 consisting solely of domain 2 (FIG. 9). […] However, the binding to mouse Siglec-15 was evident for all tested antibodies, with EC50 values calculated to rank the affinity of the antibodies.
For the ELISA, antigens were immobilized on high-binding plates, and the full-length IgG1 anti-Siglec-15 antibodies were titrated beginning at a concentration of 10 μg/ml. After washing, an anti-human IgG Fab-specific HRP-conjugated secondary antibody was applied for detection. […] Optical densities were measured to generate binding curves from which EC50 values were derived. […] Flow cytometric analysis was conducted, and fluorescence intensity was used to calculate EC50 values, providing a quantitative assessment of the antibodies' cell surface binding efficacy. […] Antibodies were titrated starting at a concentration of 10 μg/ml and detected with an anti-human Fc-specific secondary antibody to detect bound primary antibodies. The half-maximal effective concentration (EC50) was calculated for each antibody to determine its binding affinity to mouse Siglec-15. Results were analyzed and ranked based on the EC50 values.

human Siglec-15 [2] = biological target: T1, human Siglec-15; experiment: Competitive flow cytometry assay with benchmark antibodies; format: binding
Procedure: Epitope mapping assay by Flow cytometry: Competition with benchmark mouse IgG antibodies: 50,000 cells/well of THP-1 S15 OE were added to a round bottom 96 well plate, and centrifuged at 450×G for 5 minutes, and the supernatant was discarded. Human anti-siglec-15 IgG antibodies (starting at 198 nM, 3-fold serial dilution in staining buffer) were added to 100 μl of staining buffer and cells were resuspended with it and incubated for 40 minutes on ice. 100 μl of staining buffer were added to wells, centrifuged at 450× G for 5 minutes and the supernatants discarded. Benchmark mouse IgG antibodies were diluted at 33.3 nM and cells resuspended in 100 μl of the mix and incubated for 40 minutes on ice. Then, 100 μl of staining buffer were added to wells, centrifuged at 450×G for 5 minutes and the supernatants discarded. The secondary antibody anti-mouse IgG-Alexa647 was prepared at 1:200 dilution in 100 μl of staining buffer and added to each well, and cells were incubated for 40 minutes on ice. Cells were washed with 100 μl of staining buffer and centrifuged at 450×G for 5 minutes to discard the supernatant. Cells were resuspended in 150 μl of staining buffer and acquired in a flow cytometer.

Siglec-15 positive cells = experiment: Internalization assay (Zenon pHrodo iFL Green); format: cell-based; settings: kinetics over 1, 2, 4, 16, and 24 hours
Procedure: Internalization assay (Zhenon pHrodo): Sufficient volumes of 4× working solution of anti-Siglec-15 antibodies (10 nM) were prepared in cell culture medium for a total of 25 μL for each well of a 96-well plate. A working solution of Zenon™ pHrodo™ iFL IgG Labeling Reagent was prepared at 30 nM and 25 μL were added to each well. The mix was incubated for 5 minutes at room temperature to allow the labeling complexes to form. 5 mL of suspension cells at 2×10^6 cells/mL in cell culture medium were prepared and 50 μL of cells were added to each well of the 96-well plate containing the mix of anti-Siglec-15 antibody and the Zenon™ labeling reagent. Cells were incubated with the labeling complex for different timepoints (1-24 hours) under standard cell culture conditions. Fluorescence was analyzed by flow cytometry.

B1: ZLA-1243-E01: fully human anti-Siglec-15 IgG1, silenced Fc, phage display; VH SEQ ID NO: 34, VL SEQ ID NO: 35 (antibody, V domains shown)
VH: QVQLVQSGGGLVQPGRSLRLSCAASGFTFDDYAMHWVRQAPGKGLEWVSGISWNSGSIGYADSVKGRFTISRDNAKNSLYLQMNSLRAEDTALYYCAKGLWPSYDLDAFDIWGQGTMVTVSS
VL: QSALTQPASVSGSPGQSITLSCTGTSSDVGAYNFVSWYQQHPGTAPKLMIYEVSNRPSGVSDRFSGSKSGNTASLTISGLQAEDEADYYCSSYTSTIPPFVFGTGTKVTVL
modifications: IgG1 silenced Fc; ZLA-1243-E01 VH; ZLA-1243-E01 VL
EC50 (ng/mL) hS15 (human Siglec-15 [1]): 174.3 ng/mL
EC50 (ng/mL) mS15 (mouse Siglec-15): 84.88 ng/mL
inhibition of binding of A2A5C7E8 (benchmark 2) (human Siglec-15 [2]; across all concentrations (FIG. 18D)): outperformed 5G12
inhibition of binding of 5G12 (benchmark 1) (human Siglec-15 [2]; at concentrations above 10 nM (FIG. 18C)): outperformed A2A5C7E8
internalization, fold increase over isotype control (Siglec-15 positive cells): approximately 6 fold
